Reference: publication PMC8556265

Molecular target: Lsi1_(cryst) (rice Low silicon rice 1, ΔN44/ΔC24/K50R/C66A/T93V/C139A/K232R/T253V/K264R) (rice (Oryza sativa cv. Nipponbare))
Assay: crystal structure; X-ray, 1.8 Å; sitting drop vapour diffusion at 7 °C, 39-50% PEG 400, 100 mM Gly-NaOH pH 9.5, 1% OG, 0.1% CHS; space group P2_(1), two tetramers built

stoichiometry N: 4
Substance: Lsi1_(cryst) (rice Low silicon rice 1, ΔN44/ΔC24/K50R/C66A/T93V/C139A/K232R/T253V/K264R) (domain or fragment)
